This is an account of results in article PMC5300068 (2017).

This series deals with the molecule itself. Briefly: AUC.

B1: MASP-1 (protein)
chain: HTVELNNMFGQIQSPGYPDSYPSDSEVTWNITVPDGFRIKLYFMHFNLESSYLCEYDYVKVETEDQVLATFCGRETTDTEQTPGQEVVLSPGSFMSITFRSDFSNEERFTGFDAHYMAVDVDECKEREDEELSCDHYCHNYIGGYYCSCRFGYILHTDNRTCRVECSDNLFTQRTGVITSPDFPNPYPKSSECLYTIELEEGFMVNLQFEDIFDIEDHPEVPCPYDYIKIKVGPKVLGPFCGEKAPEPISTQSHSVLILFHSDNSGENRGWRLSYRAAGNECPELQPPVHGKIEPSQAKYFFKDQVLVSCDTGYKVLKDNVEMDTFQIECLKDGTWSNKIPTCKIVDCRAPGELEHGLITFSTRNNLTTYKSEIKYSCQEPYYKMLNNNTGIYTCSAQGVWMNKVLGRSLPTCLPVCGLPKFSRKLMARIFNGRPAQKGTTPWIAMLSHLNGQPFCGGSLLGSSWIVTAAHCLHQSLDPEDPTLRDSDLLSPSDFKIILGKHWRLRSDENEQHLGVKHTTLHPQYDPNTFENDVALVELLESPVLNAFVMPICLPEGPQQEGAMVIVSGWGKQFLQRFPETLMEIEIPIVDHSTCQKAYAPLKKKVTRDMICAGEKEGGKDACAGDSGGPMVTLNRERGQWYLVGTVSWGDDCGKKDRYGVYSYIHHNKDWIQRVTGVRN
What is called Kd is the equilibrium constant for the complex coming apart. A lower Kd goes with tighter binding. For B1, the Kd is under 10 nM.

B2: MASP-2 (protein)
chain: TPLGPKWPEPVFGRLASPGFPGEYANDQERRWTLTAPPGYRLRLYFTHFDLELSHLCEYDFVKLSSGAKVLATLCGQESTDTERAPGKDTFYSLGSSLDITFRSDYSNEKPFTGFEAFYAAEDIDECQVAPGEAPTCDHHCHNHLGGFYCSCRAGYVLHRNKRTCSALCSGQVFTQRSGELSSPEYPRPYPKLSSCTYSISLEEGFSVILDFVESFDVETHPETLCPYDFLKIQTDREEHGPFCGKTLPHRIETKSNTVTITFVTDESGDHTGWKIHYTSTAQPCPYPMAPPNGHVSPVQAKYILKDSFSIFCETGYELLQGHLPLKSFTAVCQKDGSWDRPMPACSIVDCGPPDDLPSGRVEYITGPGVTTYKAVIQYSCEETFYTMKVNDGKYVCEADGFWTSSKGEKSLPVCEPVCGLSARTTGGRIYGGQKAKPGDFPWQVLILGGTTAAGALLYDNWVLTAAHAVYEQKHDASALDIRMGTLKRLSPHYTQAWSEAVFIHEGYTHDAGFDNDIALIKLNNKVVINSNITPICLPRKEAESFMRTDDIGTASGWGLTQRGFLARNLMYVDIPIVDHQKCTAAYEKPPYPRGSVTANMLCAGLESGGKDSCRGDSGGALVFLDSETERWFVGGIVSWGSMNCGEAGQYGVYTKVINYIPWIENIISDF
Regarding B2, the Kd is under 10 nM.
